Experimental data reported in patent US11622990 (FUDAN UNIVERSITY, dated 2023).
Ends that are not written are not given here. Fluorescein‑5‑maleimide = reacted with thiol of C-terminal Cys

Tests used:
[1] = target: T1, GRP78 on the surface of glioma cell U87 (UniProt P11021 19-654, limits assumed); assay: confocal microscopy of U87 cells, 5 µM labelled peptide, 4 h, 37 °C (uptake)
T1 construct: whole, on cells; also called receptor protein on the cell surface; GRP78 protein

[2] = target: T2, GRP78 on the surface of HUVEC cells; assay: confocal microscopy of HUVEC cells, 5 µM labelled peptide, 4 h, 37 °C (uptake)
T2 construct: also called GRP78 on human umbilical vein endothelial cells

[3] = target: T3, Recombinant human glucose-regulated protein GRP78 (human, UniProt P11021 19-654, limits assumed); assay: SPR (Biacore T200), recombinant human GRP78 coupled to a CM5 chip, peptide injected at 0.3125-20 µM
T3 construct: also called Bip
T3 sequence (P11021 19-654 limits assumed): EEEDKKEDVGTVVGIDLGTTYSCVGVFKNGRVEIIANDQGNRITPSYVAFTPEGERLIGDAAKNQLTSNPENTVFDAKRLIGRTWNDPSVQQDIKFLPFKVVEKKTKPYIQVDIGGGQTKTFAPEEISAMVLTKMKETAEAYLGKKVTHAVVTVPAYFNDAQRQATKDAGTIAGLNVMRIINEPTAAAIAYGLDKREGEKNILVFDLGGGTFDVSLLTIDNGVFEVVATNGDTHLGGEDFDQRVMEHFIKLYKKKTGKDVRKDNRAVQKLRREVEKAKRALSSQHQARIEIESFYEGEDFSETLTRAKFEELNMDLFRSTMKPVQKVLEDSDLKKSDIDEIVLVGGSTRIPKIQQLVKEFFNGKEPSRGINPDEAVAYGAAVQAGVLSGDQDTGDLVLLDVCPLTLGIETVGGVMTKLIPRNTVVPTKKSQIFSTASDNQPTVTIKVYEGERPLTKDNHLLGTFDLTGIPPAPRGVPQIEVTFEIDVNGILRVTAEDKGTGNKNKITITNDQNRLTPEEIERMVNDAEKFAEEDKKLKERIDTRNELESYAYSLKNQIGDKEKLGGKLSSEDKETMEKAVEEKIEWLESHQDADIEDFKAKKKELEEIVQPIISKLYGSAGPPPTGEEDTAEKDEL

T2 sequence (chain, as listed by the source limits assumed): as the sequence (P11021 19-654 limits assumed) above
T1 sequence (P11021 19-654 limits assumed): as above

Row | Binder | binding result [1] | binding result [2] | Kd [3] [µM] | koff [3] [s⁻¹]
1 | SNTRVAPC(Fluorescein‑5‑maleimide) (also called Fluorescein-labeled ^LVAP) [LVAP-Fluorescein] | binds | binds |  | 
2 | SNTRVAP [LVAP (L-configuration peptide SNTRVAP)] |  |  | 2.7 | 0.019
